This test in a line: PPi detection with dATP in place of dUTP. Format: biochemical. Conditions: 1 hour at 72° C. The procedure: […] The presence of PPi in the reaction mixture was then quantified using Sigma's Enzymatic Determination of Pyrophosphate kit (Sigma Product No. P7275). The kit utilizes a coupled enzyme system whereby two moles of NADH are oxidized to NAD^+ for each mole of PPi present in the reaction mixture. The oxidation of NADH is monitored spectrophotometrically at 340 nm. […] The reactions that contained 1800 ng of PEF produced twice as much PPi as those that contained 900 ng of PEF.

B1: PEF: polymerase enhancing factor complex purified from Pyrococcus furiosus; predominant components P50 and P45 (protein)
chain 1: MLHHVKLIYATKSRKLVGKKIVXXXPGSIAALDVKACEGLIRHGAEVHAVMSEAATKIIHPYAWNLPTGNPVITEITGFIEHVELAGEHENKADLILVCPATANTISKIACGIDDTPVTTVVTTAFPHIPIMIAPAMHETMYRHPIVRENIERLKKLGVEFIGPRIEEGRAKVASIDEIVYRVIKKLHKKTLEGKRVLVTAGATREYIDPIRFITNASSGKMGVALAEEADFRGAVTLIRTKGSVKAFRIRKIKLKVETVEEMLSAIENELRSKKYDVVIMAAAVSDFRPKIKAEGKIKSGRSITIELVPXNPKIIDRIKEIQPNVFLVGFKAETSKEKLIEEGKRQIERAKADLVVGNTLEAFGSEENQVVLIGRDFTKELPKMKKRELAERIWDEIEKXLS
chain 2: MLLPDWKIRKEILIEPFSEESLQPAGYDLRVGREAFVKGKLIDVEKEGKVVIPPREYALILTLERIKLPDDVMGDMKIRSSLAREGVIGSFAWVDPGWDGNLTLMLYNASNEPVELRYGERFVQIAFIRLEGPARNPYRGNYQGSTRLAFSKRKKL
modifications: not fully specified; X: residue not identified in the source
notes: polymerase enhancing factor complex purified from Pyrococcus furiosus; predominant components P50 and P45
Turning to B1, the “PPi detected with dATP in place of dUTP” value is given as “No PPi was detected”.

Source of the values: patent publication US7943358B2, “Polymerase enhancing factor (PEF) extracts, PEF protein complexes, isolated PEF protein, and methods for purifying and identifying” (Agilent Technologies, Inc., priority 1997, dated 2011).
